Reference: paper PMC9801508, “A Cell-Permeant Nanobody-Based Degrader That Induces Fetal Hemoglobin” (ACS Central Science, 2022)

B1: Nanobody wt2D9 (initial hit) (VHH)
VHH: QVQLVESGGGLVQAGGSLRLSCAASGSIFVNNAMGWYRQAPGKERELVAAISASGGSTYYADSVKGRFTISRDNAKNTVYLQMNSLKPEDTAVYYCAADQDVYPYEYWGQGTQVTVSS
notes: initial synthetic nanobody hit of the yeast surface display screen; parent of 2D9 (2D9_V102G): as the chain of PDB 7UTG with V instead of G at 102; source: E. coli
B2: Nanobody 2D9 (2D9_V102G) (VHH)
VHH: QVQLVESGGGLVQAGGSLRLSCAASGSIFVNNAMGWYRQAPGKERELVAAISASGGSTYYADSVKGRFTISRDNAKNTVYLQMNSLKPEDTAVYYCAADQDGYPYEYWGQGTQVTVSS
notes: also called Nb 2D9; source: purified
B3: Nanobody 2D9_W108L (VHH)
VHH: QVQLVESGGGLVQAGGSLRLSCAASGSIFVNNAMGWYRQAPGKERELVAAISASGGSTYYADSVKGRFTISRDNAKNTVYLQMNSLKPEDTAVYYCAADQDVYPYEYLGQGTQVTVSS
notes: wt2D9 is as 2D9 of PDB 7UTG but with V at 102; By its name a single mutant of wt2D9, a sibling of 2D9_V102G; the reversion at 102 against PDB 7UTG is worked out from the names

Assays:
[1] = target: T1, BCL11A extended zinc finger domain (exZnF23) (Homo sapiens, UniProt Q9H165); assay: pull-down; wt2D9 and BCL11A (Figure S1b); details in the Supporting Information
T1 construct: Monomeric by SEC-MALS; also called exZnF23A; BCL11A exZnF23; source: E. coli, purified
T1 sequence (Q9H165 whole entry, looked up, the tested form may be a part): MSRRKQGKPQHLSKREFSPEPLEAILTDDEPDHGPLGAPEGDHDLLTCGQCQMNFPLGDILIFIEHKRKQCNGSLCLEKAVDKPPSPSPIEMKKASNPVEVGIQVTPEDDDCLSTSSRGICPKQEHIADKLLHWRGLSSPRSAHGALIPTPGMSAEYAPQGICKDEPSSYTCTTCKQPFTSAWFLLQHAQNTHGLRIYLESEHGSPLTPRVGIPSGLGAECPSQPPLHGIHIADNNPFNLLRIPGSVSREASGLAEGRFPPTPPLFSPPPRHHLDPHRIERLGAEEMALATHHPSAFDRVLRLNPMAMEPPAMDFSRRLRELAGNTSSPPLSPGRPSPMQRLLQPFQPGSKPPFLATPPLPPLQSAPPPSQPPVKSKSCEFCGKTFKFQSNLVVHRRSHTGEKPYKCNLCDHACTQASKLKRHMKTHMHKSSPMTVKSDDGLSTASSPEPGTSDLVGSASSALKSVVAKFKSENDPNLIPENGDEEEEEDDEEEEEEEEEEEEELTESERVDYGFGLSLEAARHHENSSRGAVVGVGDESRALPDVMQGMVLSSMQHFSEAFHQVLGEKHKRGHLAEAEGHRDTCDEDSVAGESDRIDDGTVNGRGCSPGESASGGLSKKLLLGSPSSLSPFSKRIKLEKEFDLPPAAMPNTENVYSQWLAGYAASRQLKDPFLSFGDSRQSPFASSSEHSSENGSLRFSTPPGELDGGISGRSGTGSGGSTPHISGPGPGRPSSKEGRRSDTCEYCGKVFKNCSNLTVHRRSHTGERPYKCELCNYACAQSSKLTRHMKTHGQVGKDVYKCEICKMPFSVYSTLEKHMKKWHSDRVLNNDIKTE

[2] = target: T2, endogenous, full-length BCL11A (Homo sapiens (HUDEP-2 cells), UniProt Q9H165); assay: pull-down; purified 2D9 or ZF5.3-2D9 added into the lysate of HUDEP-2 cells; endogenous BCL11A detected (the legend calls it immunoprecipitation); details: one partner purified
T2 construct: BCL11A, transcription factor and repressor of fetal globin genes, endogenous in HUDEP-2 cells; also called endogenous BCL11A; source: endogenous, HUDEP-2 lysate; endogenous, in HUDEP-2 cells
T2 sequence (Q9H165 whole entry): as the sequence (Q9H165 whole entry, looked up, the tested form may be a part) above

[3] = target: T1, BCL11A extended zinc finger domain …; assay: pull-down; read by SDS-PAGE (Figure 1C); the legend names only an SDS-PAGE analysis; who was held is not told; methods in the Supporting Information; details: both partners purified

binding result [1] | binding result [2] | binding result [3] | Binder
binds | – | – | B1
– | binds | binds | B2
– | – | binds | B3
